Reference: the supplement of paper PMC5998384

Key:
[1] = tested on: HeLa Kyoto; assay: solubility in G1/S (NP-40 vs SDS abundance) (log2 ratio); higher = more soluble; details: cell cycle stage: G1/S
[2] = tested on: HeLa Kyoto; assay: solubility change mitosis vs G1/S (difference of NP-40 vs SDS log2 ratios) (log2 ratio difference); higher = more soluble in mitosis
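Wherever solubility change mitosis vs G1/S (difference of NP-40 vs SDS log2 ratios) is given: synchronized HeLa Kyoto cells (double thymidine block for G1/S, nocodazole release for mitosis), protein amounts in NP-40 versus SDS lysates quantified by mass spectrometry, three biological replicates.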
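Wherever solubility in G1/S (NP-40 vs SDS abundance) is given: HeLa Kyoto cells arrested at G1/S by double thymidine block, proteins quantified by TMT10plex mass spectrometry in mild NP-40 versus SDS extracts, three biological replicates.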

Row | Sequence | solubility in G1/S (log2) [1] | solubility change mitosis (log2) [2]
1 | MAAPRWSASGPWIRGNGQGCGSLFTLVSKPFCAAAAASTAINAQRLAEKLRAQKREQDTKKEPVSTNAVQRRVQEIVRFTRQLQRVHPNVLAKALTRGILHQDKNLVVINKPYGLPVHGGPGVQLCITDVLPILAKMLHGHKAEPLHLCHRLDKETTGVMVLAWDKDMAHQVQELFRTRQVVKKYWAITVHVPMPSAGVVDIPIVEKEAQGQQQHHKMTLSPSYRMDDGKMVKVRRSRNAQVAVTQYQVLSSTLSSALVELQPITGIKHQLRVHLSFGLDCPILGDHKYSDWNRLAPQKLSVGTLKKLGLEQSKARYIPLHLHARQLILPALGSGKEELNLVCKLPRFFVHSLHRLRLEMPNEDQNENNEAKCLGAQ [RPUSD4] | -0.22 | 0.0788
2 | MMGSKMASASRVVQVVKPHTPLIRFPDRRDNPKPNVSEALRSAGLPSHSSVISQHSKGSKSPDLLMYQGPPDTAEIIKTLPQKYRRKLVSQEEMEFIQRGGPE [MRPS36] | 0.138 | 0.401
3 | MVYISNGQVLDSRSQSPWRLSLITDFFWGIAEFVVLFFKTLLQQDVKKRRSYGNSSDSRYDDGRGPPGNPPRRMGRINHLRGPSPPPMAGGUGR [SELK] | 0.000519 | 0.31
4 | MTDPFCVGGRRLPGSSKSGPGKDGSRKEVRLPMLHDPPKMGMPVVRGGQTVPGQAPLCFDPGSPASDKTEGKKKGRPKAENQALRDIPLSLMNDWKDEFKAHSRVKCPNSGCWLEFPSIYGLKYHYQRCQGGAISDRLAFPCPFCEAAFTSKTQLEKHRIWNHMDRPLPASKPGPISRPVTISRPVGVSKPIGVSKPVTIGKPVGVSKPIGISKPVSVGRPMPVTKAIPVTRPVPVTKPVTVSRPMPVTKAMPVTKPITVTKSVPVTKPVPVTKPITVTKLVTVTKPVPVTKPVTVSRPIVVSKPVTVSRPIAISRHTPPCKMVLLTRSENKAPRATGRNSGKKRAADSLDTCPIPPKQARPENGEYGPSSMGQSSAFQLSADTSSGSLSPGSRPSGGMEALKAAGPASPPEEDPERTKHRRKQKTPKKFTGEQPSISGTFGLKGLVKAEDKARVHRSKKQEGPGPEDARKKVPAAPITVSKEAPAPVAHPAPGGPEEQWQRAIHERGEAVCPTCNVVTRKTLVGLKKHMEVCQKLQDALKCQHCRKQFKSKAGLNYHTMAEHSAKPSDAEASEGGEQEERERLRKVLKQMGRLRCPQEGCGAAFSSLMGYQYHQRRCGKPPCEVDSPSFPCTHCGKTYRSKAGHDYHVRSEHTAPPPEEPTDKSPEAEDPLGVERTPSGRVRRTSAQVAVFHLQEIAEDELARDWTKRRMKDDLVPETARLNYTRPGLPTLNPQLLEAWKNEVKEKGHVNCPNDCCEAIYSSVSGLKAHLASCSKGAHLAGKYRCLLCPKEFSSESGVKYHILKTHAENWFRTSADPPPKHRSQDSLVPKKEKKKNLAGGKKRGRKPKERTPEEPVAKLPPRRDDWPPGCRDKGARGSTGRKVGVSKAPEK [ZNF512B] | -0.767 | 0.776
5 | MQVPQDGEDLAGQPWYHGLLSRQKAEALLQQNGDFLVRASGSRGGNPVISCRWRGSALHFEVFRVALRPRPGRPTALFQLEDEQFPSIPALVHSYMTGRRPLSQATGAVVSRPVTWQGPLRRSFSEDTLMDGPARIEPLRARKWSNSQPADLAHMGRSREDPAGMEASTMPISALPRTSSDPVLLKAPAPLGTVADSLRASDGQLQAKAPTKPPRTPSFELPDASERPPTYCELVPRVPSVQGTSPSQSCPEPEAPWWEAEEDEEEENRCFTRPQAEISFCPHDAPSCLLGPQNRPLEPQVLHTLRGLFLEHHPGSTALHLLLVDCQATGLLGVTRDQRGNMGVSSGLELLTLPHGHHLRLELLERHQTLALAGALAVLGCSGPLEERAAALRGLVELALALRPGAAGDLPGLAAVMGALLMPQVSRLEHTWRQLRRSHTEAALAFEQELKPLMRALDEGAGPCDPGEVALPHVAPMVRLLEGEEVAGPLDESCERLLRTLHGARHMVRDAPKFRKVAAQRLRGFRPNPELREALTTGFVRRLLWGSRGAGAPRAERFEKFQRVLGVLSQRLEPDR [SH2D3A] | 0.386 | 0.0323
6 | MAEAGAGLSETVTETTVTVTTEPENRSLTIKLRKRKPEKKVEWTSDTVDNEHMGRRSSKCCCIYEKPRAFGESSTESDEEEEEGCGHTHCVRGHRKGRRRATLGPTPTTPPQPPDPSQPPPGPMQH [PPP1R11] | -0.804 | 0.00513
7 | MSLERELRQLSKAKAKAQRAGQRREEAALCHQLGELLAGHGRYAEALEQHWQELQLRERADDPLGCAVAHRKIGERLAEMEDYPAALQHQHQYLELAHSLRNHTELQRAWATIGRTHLDIYDHCQSRDALLQAQAAFEKSLAIVDEELEGTLAQGELNEMRTRLYLNLGLTFESLQQTALCNDYFRKSIFLAEQNHLYEDLFRARYNLGTIHWRAGQHSQAMRCLEGARECAHTMRKRFMESECCVVIAQVLQDLGDFLAAKRALKKAYRLGSQKPVQRAAICQNLQHVLAVVRLQQQLEEAEGRDPQGAMVICEQLGDLFSKAGDFPRAAEAYQKQLRFAELLDRPGAERAIIHVSLATTLGDMKDHHGAVRHYEEELRLRSGNVLEEAKTWLNIALSREEAGDAYELLAPCFQKALSCAQQAQRPQLQRQVLQHLHTVQLRLQPQEAPETETRLRELSVAEDEDEEEEAEEAAATAESEALEAGEVELSEGEDDTDGLTPQLEEDEELQGHLGRRKGSKWNRRNDMGETLLHRACIEGQLRRVQDLVRQGHPLNPRDYCGWTPLHEACNYGHLEIVRFLLDHGAAVDDPGGQGCEGITPLHDALNCGHFEVAELLLERGASVTLRTRKGLSPLETLQQWVKLYRRDLDLETRQKARAMEMLLQAAASGQDPHSSQAFHTPSSLLFDPETSPPLSPCPEPPSNSTRLPEASQAHVRVSPGQAAPAMARPRRSRHGPASSSSSSEGEDSAGPARPSQKRPRCSATAQRVAAWTPGPASNREAATASTSRAAYQAAIRGVGSAQSRLGPGPPRGHSKALAPQAALIPEEECLAGDWLELDMPLTRSRRPRPRGTGDNRRPSSTSGSDSEESRPRARAKQVRLTCMQSCSAPVNAGPSSLASEPPGSPSTPRVSEPSGDSSAAGQPLGPAPPPPIRVRVQVQDHLFLIPVPHSSDTHSVAWLAEQAAQRYYQTCGLLPRLTLRKEGALLAPQDLIPDVLQSNDEVLAEVTSWDLPPLTDRYRRACQSLGQGEHQQVLQAVELQGLGLSFSACSLALDQAQLTPLLRALKLHTALRELRLAGNRLGDKCVAELVAALGTMPSLALLDLSSNHLGPEGLRQLAMGLPGQATLQSLEELDLSMNPLGDGCGQSLASLLHACPLLSTLRLQACGFGPSFFLSHQTALGSAFQDAEHLKTLSLSYNALGAPALARTLQSLPAGTLLHLELSSVAAGKGDSDLMEPVFRYLAKEGCALAHLTLSANHLGDKAVRDLCRCLSLCPSLISLDLSANPEISCASLEELLSTLQKRPQGLSFLGLSGCAVQGPLGLGLWDKIAAQLRELQLCSRRLCAEDRDALRQLQPSRPGPGECTLDHGSKLFFRRL [TONSL] | -0.116 | 0.119
8 | MASESSPLLAYRLLGEEGVALPANGAGGPGGASARKLSTFLGVVVPTVLSMFSIVVFLRIGFVVGHAGLLQALAMLLVAYFILALTVLSVCAIATNGAVQGGGAYFMISRTLGPEVGGSIGLMFYLANVCGCAVSLLGLVESVLDVFGADATGPSGLRVLPQGYGWNLLYGSLLLGLVGGVCTLGAGLYARASFLTFLLVSGSLASVLISFVAVGPRDIRLTPRPGPNGSSLPPRFGHFTGFNSSTLKDNLGAGYAEDYTTGAVMNFASVFAVLFNGCTGIMAGANMSGELKDPSRAIPLGTIVAVAYTFFVYVLLFFLSSFTCDRTLLQEDYGFFRAISLWPPLVLIGIYATALSASMSSLIGASRILHALARDDLFGVILAPAKVVSRGGNPWAAVLYSWGLVQLVLLAGKLNTLAAVVTVFYLVAYAAVDLSCLSLEWASAPNFRPTFSLFSWHTCLLGVASCLLMMFLISPGAAGGSLLLMGLLAALLTARGGPSSWGYVSQALLFHQVRKYLLRLDVRKDHVKFWRPQLLLLVGNPRGALPLLRLANQLKKGGLYVLGHVTLGDLDSLPSDPVQPQYGAWLSLVDRAQVKAFVDLTLSPSVRQGAQHLLRISGLGGMKPNTLVLGFYDDAPPQDHFLTDPAFSEPADSTREGSSPALSTLFPPPRAPGSPRALNPQDYVATVADALKMNKNVVLARASGALPPERLSRGSGGTSQLHHVDVWPLNLLRPRGGPGYVDVCGLFLLQMATILGMVPAWHSARLRIFLCLGPREAPGAAEGRLRALLSQLRIRAEVQEVVWGEGAGAGEPEAEEEGDFVNSGRGDAEAEALARSANALVRAQQGRGTGGGPGGPEGGDAEGPITALTFLYLPRPPADPARYPRYLALLETLTRDLGPTLLVHGVTPVTCTDL [SLC12A9] | -0.0513 | 0.119
9 | MASQLQVFSPPSVSSSAFCSAKKLKIEPSGWDVSGQSSNDKYYTHSKTLPATQGQANSSHQVANFNIPAYDQGLLLPAPAVEHIVVTAADSSGSAATSTFQSSQTLTHRSNVSLLEPYQKCGLKRKSEEVDSNGSVQIIEEHPPLMLQNRTVVGAAATTTTVTTKSSSSSGEGDYQLVQHEILCSMTNSYEVLEFLGRGTFGQVAKCWKRSTKEIVAIKILKNHPSYARQGQIEVSILSRLSSENADEYNFVRSYECFQHKNHTCLVFEMLEQNLYDFLKQNKFSPLPLKYIRPILQQVATALMKLKSLGLIHADLKPENIMLVDPVRQPYRVKVIDFGSASHVSKAVCSTYLQSRYYRAPEIILGLPFCEAIDMWSLGCVIAELFLGWPLYPGASEYDQIRYISQTQGLPAEYLLSAGTKTTRFFNRDPNLGYPLWRLKTPEEHELETGIKSKEARKYIFNCLDDMAQVNMSTDLEGTDMLAEKADRREYIDLLKKMLTIDADKRITPLKTLNHQFVTMTHLLDFPHSNHVKSCFQNMEICKRRVHMYDTVSQIKSPFTTHVAPNTSTNLTMSFSNQLNTVHNQASVLASSSTAAAATLSLANSDVSLLNYQSALYPSSAAPVPGVAQQGVSLQPGTTQICTQTDPFQQTFIVCPPAFQTGLQATTKHSGFPVRMDNAVPIVPQAPAAQPLQIQSGVLTQGSCTPLMVATLHPQVATITPQYAVPFTLSCAAGRPALVEQTAAVLQAWPGGTQQILLPSTWQQLPGVALHNSVQPTAMIPEAMGSGQQLADWRNAHSHGNQYSTIMQQPSLLTNHVTLATAQPLNVGVAHVVRQQQSSSLPSKKNKQSAPVSSKSSLDVLPSQVYSLVGSSPLRTTSSYNSLVPVQDQHQPIIIPDTPSPPVSVITIRSDTDEEEDNKYKPSSSGLKPRSNVISYVTVNDSPDSDSSLSSPYSTDTLSALRGNSGSVLEGPGRVVADGTGTRTIIVPPLKTQLGDCTVATQASGLLSNKTKPVASVSGQSSGCCITPTGYRAQRGGTSAAQPLNLSQNQQSSAAPTSQERSSNPAPRRQQAFVAPLSQAPYTFQHGSPLHSTGHPHLAPAPAHLPSQAHLYTYAAPTSAAALGSTSSIAHLFSPQGSSRHAAAYTTHPSTLVHQVPVSVGPSLLTSASVAPAQYQHQFATQSYIGSSRGSTIYTGYPLSPTKISQYSYL [HIPK1] | 0.478 | -0.386
10 | MEDKRNIQIIEWEHLDKKKFYVFGVAMTMMIRVSVYPFTLIRTRLQVQKGKSLYHGTFDAFIKILRADGITGLYRGFLVNTFTLISGQCYVTTYELTRKFVADYSQSNTVKSLVAGGSASLVAQSITVPIDVVSQHLMMQRKGEKMGRFQVRGNPEGQGVVAFGQTKDIIRQILQADGLRGFYRGYVASLLTYIPNSAVWWPFYHFYAEQLSYLCPKECPHIVFQAVSGPLAAATASILTNPMDVIRTRVQVEGKNSIILTFRQLMAEEGPWGLMKGLSARIISATPSTIVIVVGYESLKKLSLRPELVDSRHW [SLC25A44] | -0.146 | -0.117
